Assay [1] deals with RSV A2 pre-F (RSV A2). In words: BLI. A general note: BLI is a label-free optical method that tracks binding on a fibre tip over time.
Assay [2] has as its target RSV A2 pre-F (RSV A2). In words: ELISA.
Assay [3] deals with RSV A2 pre-F (RSV A2). In words: ELISA. This is another data set of the same source. On the technique in general: An ELISA detects its analyte on a solid surface through an enzyme-linked reagent.
The target of assay [4] is RSV A2 pre-F (RSV A2). In words: BLI. The source holds these as a separate data set.

Where two headings read alike, the source gives them in different places.

B1: F6-56 (antibody, V domains shown)
VH: QVQLVESGGDVVRPGTSLRLSCAASGFAFRSHALHWVRQAPGKGLEWVSVISYDGGHTNSADSVKGRFTVSRDNSKNILFLQMNSLRIEDTAVYFCARSEGSYRSWPGYFYYMDVWGNGTTVTVSS
VL: QSALTQPASVSGSPGQSITISCIGTSSDVGGYYYVSWYQQHPGKAPKLIIFDVSDRPSGVSSRFSGSQSGNTASLTISGLQAEDEADYYCNSYSSSTTPYVFGSGTKVTVL
In general, Kd refers to the concentration at which binding is half-saturated. Read a high Kd as weaker binding. One may read the EC50 as the concentration that produces a half-maximal response. High values mean weaker potency, low ones greater potency. Take B1: the Kd in the assay with RSV A2 pre-F [1] is 0.381 nM. Also, in the assay with RSV A2 pre-F [2], the EC50 came out at 0.0141 µg/mL.

B2: F6-49 (antibody, V domains shown)
VH: QVQLVESGGGVVLPGTSLTLSCAASGFTFRHYAIHWVRQTPGGGLEWVAALPYDGSTKYFAESVKDRFTIYRDNSQAAAFLHMSSLTPGDTALYYCARSTYSYEYSFLGYFYYMDVWGRGTSVTVSS
VL: QSALTQPASVSGSPGQSISISCTGTSRDVGAYTYISWSQQHTGQAPKLLIYDVSERPSGVSDRFSGSKTGDTASLAISGLQAEDEAVYYCSSYTDSNTVVFGGGTKVTVL
Molecule B2 came in with a Kd with RSV A2 pre-F [1] of 0.713 nM. Further, in the assay with RSV A2 pre-F [2], the EC50 turned out to be 0.0104 µg/mL.

B3: F6-65 (antibody, V domains shown)
VH: QVQLVESGGGLVQPGDSLRLSCAASGFTFKSYGLHWVRQAPGKGLEWVAGLSYDGFSGYYADSVKGRFTVSRDNSKNTLYLHINSLRSEDTSIYYCARGGDGEIFSWIGYFYYMDVWGKGTTVTVFS
VL: QSALTQPASVSGSPGQSITISCSGTTNDVGGYDYVSWYQHHPGKAPKLLIYDVSQRPSGVSSRFSGSKSGNTASLTISGLQTDDEAHYYCSSYTITNTLKFGGGTTLTVL
Turning to B3, in the assay with RSV A2 pre-F [1], the Kd amounted to 0.96 nM. Besides, it took 0.00998 µg/mL to reach a half-maximal effect with RSV A2 pre-F [2] (EC50).

B4: F6-47 (antibody, V domains shown)
VH: QVQLLESGGNVVQPGRSLSLSCVASGFALKSYAVHWVRQAPGKGLEWVAFVPYDAVTNYYADSVKGRFTVSRDISKNTVNLHMNRLMGEDTAVYFCARGATSGSYSFLGYNYYMDVWGRGTAVTVSS
VL: QSALTQPASVSGSPGQPITISCTGTSSDVGAYTYVSWYQHHPGKAPKLILFDVTDRPSGVSHRFSGSKSGNTASLTISGLQSEDEAEYYCSSYTDRNTIVFGGGTTLTVL
As to B4, in the assay with RSV A2 pre-F [1], binding was characterised by a dissociation constant (Kd) of 0.343 nM. In the assay with RSV A2 pre-F [2], this molecule yielded an EC50 of 0.00998 µg/mL.

B5: F6-37 (antibody, V domains shown)
VH: QVHLVESGGNVVHPGTSLSLSCAGSGFTFKSHAIHWVRQAPGRGLEWVAFVPYDGATNYYADSLKGRFTVSRDNSRNTVSLHMNRLEGQDTAVYFCARGATSGSYSFLGYNYYMDVWGRGTTVTVSS
VL: QSALTQPASVSGSPGQSITISCTGTSSDVGAYTYVSWYQQLPGKAPKLLLFDVTDRPSGVAHRFSGSKSGNTASLTISGLQAEDEAEYYCSSYTDRNTLVFGGGTKLTVL
In turn, B5 registered a Kd with RSV A2 pre-F [1] of 0.68 nM. In the assay with RSV A2 pre-F [2], this molecule showed an EC50 of 0.0117 µg/mL.

B6: MEDI8897 (antibody, V domains shown)
VH: QVQLVQSGAEVKKPGSSVMVSCQASGGLLEDYIINWVRQAPGQGPEWMGGIIPVLGTVHYGPKFQGRVTITADESTDTAYMELSSLRSEDTAMYYCATETALVVSETYLPHYFDNWGQGTLVTVSS
VL: DIQMTQSPSSLSAAVGDRVTITCQASQDIVNYLNWYQQKPGKAPKLLIYVASNLETGVPSRFSGSGSGTDFSLTISSLQPEDVATYYCQQYDNLPLTFGGGTKVEIKR
As for B6, the EC50 in the assay with RSV A2 pre-F [3] was determined as 0.0313 µg/mL; with RSV A2 pre-F [2] it was 0.0146 µg/mL. The Kd in the assay with RSV A2 pre-F [4] is 0.379 nM; with RSV A2 pre-F [1], 0.122 nM.

(Values after patent US20260327294 (published 2026).)
